Measured values taken from US20240409635A1.
Values belong to the binder of their own block, whether it stands above or below them.

Experiments:
[1] = target: tyrosine-protein kinase Met (c-Met) on human tumor cells (human) (UniProt P08581); test: cell-based or functional assay
[2] = target: HER2-BsAb bispecific control antibody (TA1-Fab anti-CD3 x HER2 VHH); test: BLI self-interaction, AHQ sensor
[3] = target: CEA-CAM6-BsAb bispecific control antibody (TA1-Fab anti-CD3 x CEA-CAM6 VHH); test: BLI self-interaction, AHQ sensor
[4] = target: CEA-BsAb bispecific control antibody (TA1-Fab anti-CD3 x CEA VHH); test: BLI self-interaction, AHQ sensor
[5] = target: EGFR-BsAb bispecific control antibody (TA1-Fab anti-CD3 x EGFR VHH); test: BLI self-interaction, AHQ sensor

Sequence of tyrosine-protein kinase Met (c-Met) on human tumor cells (human) (P08581 25-1390): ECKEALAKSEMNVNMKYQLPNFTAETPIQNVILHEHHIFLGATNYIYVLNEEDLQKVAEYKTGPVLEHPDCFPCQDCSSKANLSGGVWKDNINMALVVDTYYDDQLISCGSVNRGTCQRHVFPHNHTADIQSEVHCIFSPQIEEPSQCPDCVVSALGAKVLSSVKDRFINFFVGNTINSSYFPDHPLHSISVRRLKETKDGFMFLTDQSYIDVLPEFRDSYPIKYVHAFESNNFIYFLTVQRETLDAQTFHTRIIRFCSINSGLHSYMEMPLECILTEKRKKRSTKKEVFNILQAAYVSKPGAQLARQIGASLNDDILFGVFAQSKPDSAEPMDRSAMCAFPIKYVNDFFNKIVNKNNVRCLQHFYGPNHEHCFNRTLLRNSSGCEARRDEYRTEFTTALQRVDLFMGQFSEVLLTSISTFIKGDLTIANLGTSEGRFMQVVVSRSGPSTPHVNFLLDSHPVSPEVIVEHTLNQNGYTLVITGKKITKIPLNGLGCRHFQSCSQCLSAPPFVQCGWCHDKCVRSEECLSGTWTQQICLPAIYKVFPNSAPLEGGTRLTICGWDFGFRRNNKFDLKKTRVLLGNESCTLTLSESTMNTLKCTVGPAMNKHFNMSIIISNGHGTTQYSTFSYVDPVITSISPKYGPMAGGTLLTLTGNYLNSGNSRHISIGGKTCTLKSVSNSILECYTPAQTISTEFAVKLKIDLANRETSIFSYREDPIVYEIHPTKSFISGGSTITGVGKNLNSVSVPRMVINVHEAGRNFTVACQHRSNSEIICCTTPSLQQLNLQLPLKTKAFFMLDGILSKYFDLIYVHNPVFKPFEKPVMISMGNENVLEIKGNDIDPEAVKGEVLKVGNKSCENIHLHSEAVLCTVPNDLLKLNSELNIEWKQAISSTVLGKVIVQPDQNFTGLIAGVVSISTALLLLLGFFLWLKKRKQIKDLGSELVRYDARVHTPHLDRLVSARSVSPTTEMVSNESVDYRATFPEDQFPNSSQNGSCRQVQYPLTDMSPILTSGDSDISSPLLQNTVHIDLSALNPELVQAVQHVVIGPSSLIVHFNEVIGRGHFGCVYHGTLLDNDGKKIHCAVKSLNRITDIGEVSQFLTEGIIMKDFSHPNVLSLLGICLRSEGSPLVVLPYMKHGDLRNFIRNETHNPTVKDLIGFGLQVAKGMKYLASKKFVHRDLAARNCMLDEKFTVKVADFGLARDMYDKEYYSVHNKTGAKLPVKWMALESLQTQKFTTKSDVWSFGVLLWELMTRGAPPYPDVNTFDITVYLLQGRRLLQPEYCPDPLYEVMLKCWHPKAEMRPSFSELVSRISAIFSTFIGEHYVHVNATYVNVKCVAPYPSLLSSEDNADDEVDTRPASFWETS

B1: c-Met-BsAb bispecific control antibody (anti-CD3 TA1 Fab and c-Met VHH) (bispecific antibody, not shown: a dimerising Fc or GST)
heavy: EVKLLESGGGLVQPKGSLKLSCAASGFTFNTYAMNWVRQAPGKGLEWVARIRSKYNNYATYYADSVKDRFTISRDDSQSILYLQMNNLKTEDTAMYYCVRHGNFGNSYVSWFAYWGQGTLVTVSSASTKGPSVFPLAPCSRSTSESTAALGCLVKDYFPEPVTVSWNSGALTSGVHTFPAVLQSSGLYSLSSVVTVPSSSLGTKTYTCNVDHKPSNTKVDKRV
chain: QVKLEESGGDLVQPGGSLRLSCVGSGSIFSYTAMGWYRQAPGKQRELVATIHSGGNINYADSVKGRFTISRDNTENTVYLQMNSLKPEDTAVYYCWSLLVGPETRYKDFNFWGRGTQVTVSS
light: QAVVTQESALTTSPGETVTLTCRSSTGAVTTSNYANWVQEKPDHLFTGLIGGTNKRAPGVPARFSGSLIGDKAALTITGAQTEDEAIYFCALWYSNLWVFGGGTKVEIKRTVAAPSVFIFPPSDEQLKSGTASVVCLLNNFYPREAKVQWKVDNALQSGNSQESVTEQDSKDSTYSLSSTLTLSKADYEKHKVYACEVTHQGLSSPVTKSFNRGEC
T cell mediated killing EC50, H-1975 (EGFR+c-Met+) [1]: 0.223 pM | T cell mediated killing EC50, HT-29 (EGFR+c-Met+) [1]: 0.518 pM | T cell mediated killing EC50, OSRC2 (EGFR+++c-Met+) [1]: 243 pM | T cell mediated killing EC50, UT33A (EGFR+++c-Met+++) [1]: 2.7 pM | T cell mediated killing EC50, UT44 (EGFR+++c-Met++) [1]: 0.156 pM

B2: HER2-BsAb bispecific control antibody (TA1-Fab anti-CD3 x HER2 VHH) (bispecific antibody, human IgG4 S228P, kappa, F234A L235A)
heavy: EVKLLESGGGLVQPKGSLKLSCAASGFTFNTYAMNWVRQAPGKGLEWVARIRSKYNNYATYYADSVKDRFTISRDDSQSILYLQMNNLKTEDTAMYYCVRHGNFGNSYVSWFAYWGQGTLVTVSSASTKGPSVFPLAPCSRSTSESTAALGCLVKDYFPEPVTVSWNSGALTSGVHTFPAVLQSSGLYSLSSVVTVPSSSLGTKTYTCNVDHKPSNTKVDKRVESKYGPPCPPCPAPEAAGGPSVFLFPPKPKDTLMISRTPEVTCVVVDVSQEDPEVQFNWYVDGVEVHNAKTKPREEQFNSTYRVVSVLTVLHQDWLNGKEYKCKVSNKGLPSSIEKTISKAKGQPREPQVYTLPPCQEEMTKNQVSLWCLVKGFYPSDIAVEWESNGQPENNYKTTPPVLDSDGSFFLYSRLTVDKSRWQEGNVFSCSVMHEALHNHYTQKSLSLSL
chain: QVQLVQSGGGLVQAGGSLRLSCAASGRTFSSYAMAWFRQAPGKEREFVAAISWSGANIYVADSVKGRFTISRDNAKDTVYLQMNSLKPEDTAVYYCAVKLGFAPVEERQYDYWGQGTQVTVSSESKYGPPCPPCPAPEAAGGPSVFLFPPKPKDTLMISRTPEVTCVVVDVSQEDPEVQFNWYVDGVEVHNAKTKPREEQFNSTYRVVSVLTVLHQDWLNGKEYKCKVSNKGLPSSIEKTISKAKGQPREPQVCTLPPSQEEMTKNQVSLSCAVKGFYPSDIAVEWESNGQPENNYKTTPPVLDSDGSFFLVSRLTVDKSRWQEGNVFSCSVMHEALHNRFTQKSLSLSL
light: B1 light
BLI-Response (self-interaction) [2]: 0.066 nm

B3: CEA-CAM6-BsAb bispecific control antibody (TA1-Fab anti-CD3 x CEA-CAM6 VHH) (bispecific antibody, human IgG4 S228P, kappa, F234A L235A)
heavy: B2 heavy
chain: QVKLEESGGGLVQAGGSLRLSCRTSGRTNSVYTMGWFRQAPGKEREFVAQIMWGAGTNTHYADSVKGRFTISRDSAESTVYLQMNSLKPEDTAVYYCAANRGIPIAGRQYDYWGQGTQVTVSSESKYGPPCPPCPAPEAAGGPSVFLFPPKPKDTLMISRTPEVTCVVVDVSQEDPEVQFNWYVDGVEVHNAKTKPREEQFNSTYRVVSVLTVLHQDWLNGKEYKCKVSNKGLPSSIEKTISKAKGQPREPQVCTLPPSQEEMTKNQVSLSCAVKGFYPSDIAVEWESNGQPENNYKTTPPVLDSDGSFFLVSRLTVDKSRWQEGNVFSCSVMHEALHNRFTQKSLSLSL
light: B1 light
BLI-Response (self-interaction) [3]: 0.045 nm

Second part, the binder after the results:

BLI-Response (self-interaction) [4]: 0.103 nm
B4: CEA-BsAb bispecific control antibody (TA1-Fab anti-CD3 x CEA VHH) (bispecific antibody, human IgG4 S228P, kappa, F234A L235A)
heavy: B2 heavy
chain: EVQLVESGGGFVQAGESLTLSCTSSTLTFTPYRMAWYRQAPGKQRDLVADISSGDGRTTNYADFAKGRFTISRDNIKNTVFLRMTNLKPEDTAVYYCNTFVSFVGIARSWGQGTQVTVSSESKYGPPCPPCPAPEAAGGPSVFLFPPKPKDTLMISRTPEVTCVVVDVSQEDPEVQFNWYVDGVEVHNAKTKPREEQFNSTYRVVSVLTVLHQDWLNGKEYKCKVSNKGLPSSIEKTISKAKGQPREPQVCTLPPSQEEMTKNQVSLSCAVKGFYPSDIAVEWESNGQPENNYKTTPPVLDSDGSFFLVSRLTVDKSRWQEGNVFSCSVMHEALHNRFTQKSLSLSL
light: B1 light

BLI-Response (self-interaction) [5]: 0.037 nm
B5: EGFR-BsAb bispecific control antibody (TA1-Fab anti-CD3 x EGFR VHH) (bispecific antibody, human IgG4 S228P, kappa, F234A L235A)
heavy: B2 heavy
chain: QVQLQESGGGSVQAGGSLKLSCAASGRGFSRYAMGWFRQAPGQDREFVATISWTNSTDYADSVKGRFAISRDNAKNTAYLQMNSLKPEDTAVYYCAADKWASSTRSIDYDYWGQGIQVTVSSESKYGPPCPPCPAPEAAGGPSVFLFPPKPKDTLMISRTPEVTCVVVDVSQEDPEVQFNWYVDGVEVHNAKTKPREEQFNSTYRVVSVLTVLHQDWLNGKEYKCKVSNKGLPSSIEKTISKAKGQPREPQVCTLPPSQEEMTKNQVSLSCAVKGFYPSDIAVEWESNGQPENNYKTTPPVLDSDGSFFLVSRLTVDKSRWQEGNVFSCSVMHEALHNRFTQKSLSLSL
light: B1 light
